First the molecules themselves.
B1: bovine coagulation factor X (natural protein, UniProt P00743 41-492, looked up)
chain: ANSFLEEVKQGNLERECLEEACSLEEAREVFEDAEQTDEFWSKYKDGDQCEGHPCLNQGHCKDGIGDYTCTCAEGFEGKNCEFSTREICSLDNGGCDQFCREERSEVRCSCAHGYVLGDDSKSCVSTERFPCGKFTQGRSRRWAIHTSEDALDASELEHYDPADLSPTESSLDLLGLNRTEPSAGEDGSQVVRIVGGRDCAEGECPWQALLVNEENEGFCGGTILNEFYVLTAAHCLHQAKRFTVRVGDRNTEQEEGNEMAHEVEMTVKHSRFVKETYDFDIAVLRLKTPIRFRRNVAPACLPEKDWAEATLMTQKTGIVSGFGRTHEKGRLSSTLKMLEVPYVDRSTCKLSSSFTITPNMFCAGYDTQPEDACQGDSGGPHVTRFKDTYFVTGIVSWGEGCARKGKFGVYTKVSNFLKWIDKIMKARAGAAGSRGHSEAPATWTVPPPLPL
modifications: γ-carboxylated glutamate residues in the Gla domain (positions not given)
notes: coagulation factor X, bovine, plasma-derived; also called Bovine FX; source: bought: Haematologic Technologies, Inc. (BCX-1050), plasma-derived; pretreated with GGACK, dialyzed
B2: mouse prothrombin (coagulation factor II) (natural protein)
chain: not shown
modifications: γ-carboxylated glutamate residues in the Gla domain (positions not given)
notes: prothrombin (FII), mouse, plasma-derived; also called Mouse FII; source: dialyzed
B3: mouse coagulation factor X (natural protein, UniProt O88947 41-481, looked up)
chain: ANSFFEEFKKGNLERECMEEICSYEEVREIFEDDEKTKEYWTKYKDGDQCESSPCQNQGACRDGIGGYTCTCSEGFEGKNCELFVRKLCRLDNGDCDQFCREEQNSVVCSCASGYFLGNDGKSCISTAPFPCGKITTGRRKRSVALNTSDSELDLEDALLDEDFLSPTENPIELLNLNETQPERSSDDLVRIVGGRECKDGECPWQALLINEDNEGFCGGTILNEFYILTAAHCLHQARRFKVRVGDRNTEKEEGNEMVHEVDVVIKHNKFQRDTYDYDIAVLRLKTPITFRMNVAPACLPQKDWAESTLMTQKTGIVSGFGRTHEKGRQSNILKMLEVPYVDRNTCKLSTSFSITQNMFCAGYEAKLEDACQGDSGGPHVTRFKNTYYVTGIVSWGEGCARKGKYGIYTKVTTFLKWIDRSMKARVGPTAETPRTAGPPN
modifications: γ-carboxylated glutamate residues in the Gla domain (positions not given)
notes: coagulation factor X, mouse, plasma-derived; also called Mouse FX; source: bought: Haematologic Technologies, Inc. (MCX-5050), plasma-derived; pretreated with GGACK, dialyzed
B4: hexon of Ad5.6 (Ad5 vector, hexon HVR7 VIRTDTL), on the virion (natural protein, human adenovirus type 5)
chain: ATPSMMPQWSYMHISGQDASEYLSPGLVQFARATETYFSLNNKFRNPTVAPTHDVTTDRSQRLTLRFIPVDREDTAYSYKARFTLAVGDNRVLDMASTYFDIRGVLDRGPTFKPYSGTAYNALAPKGAPNPCEWDEAATALEINLEEEDDDNEDEVDEQAEQQKTHVFGQAPYSGINITKEGIQIGVEGQTPKYADKTFQPEPQIGESQWYETEINHAAGRVLKKTTPMKPCYGSYAKPTNENGGQGILVKQQNGKLESQVEMQFFSTTEATAGNGDNLTPKVVLYSEDVDIETPDTHISYMPTIKEGNSRELMGQQSMPNRPNYIAFRDNFIGLMYYNSTGNMGVLAGQASQLNAVVDLQDRNTELSYQLLLDSIGDRTRYFSMWNQAVDSYDPDVRIIENHGTEDELPNYCFPLGGVIRTDTLTKVKPKTGQENGWEKDATEFSDKNEIRVGNNFAMEINLNANLWRNFLYSNIALYLPDKLKYSPSNVKISDNPNTYDYMNKRVVAPGLVDCYINLGARWSLDYMDNVNPFNHHRNAGLRYRSMLLGNGRYVPFHIQVPQKFFAIKNLLLLPGSYTYEWNFRKDVNMVLQSSLGNDLRVDGASIKFDSICLYATFFPMAHNTASTLEAMLRNDTNDQSFNDYLSAANMLYPIPANATNVPISIPSRNWAAFRGWAFTRLKTKETPSLGSGYDPYYTYSGSIPYLDGTFYLNHTFKKVAITFDSSVSWPGNDRLLTPNEFEIKRSVDGEGYNVAQCNMTKDWFLVQMLANYNIGYQGFYIPESYKDRMYSFFRNFQPMSRQVVDDTKYKDYQQVGILHQHNNSGFVGYLAPTMREGQAYPANFPYPLIGKTAVDSITQKKFLCDRTLWRIPFSSNFMSMGALTDLGQNLLYANSAHALDMTFEVDPMDEPTLLYVLFEVFDVVRVHRPHRGVIETVYLRTPFSAGNATT
notes: hexon of human adenovirus type 5, whole as in the capsid of the virion; HVR7 segment changed; The whole virion was immobilised; source: 293 cells, virions purified by CsCl ultracentrifugation
B5: hexon of Ad5.4 (Ad5 vector, hexon HVR7 VINTATL), on the virion (natural protein, human adenovirus type 5)
chain: B4 chain with R421N, D423A
notes: as for B4
B6: hexon of Ad5.0 (E1/E3-deleted Ad5 vector with wild-type Ad5 capsid), on the virion (natural protein, human adenovirus type 5)
chain: B4 chain with R421N, D423E
notes: hexon of human adenovirus type 5, whole as in the capsid of the virion; HVR7 segment VINTETL; The whole virion was immobilised; The other capsid proteins are not written; also called VINTETL; source: 293 cells, virions purified by CsCl ultracentrifugation

Substitutions are numbered along the chain they refer to.

For one test, the target named is T1, hexon of Ad5.5 (Ad5 vector, hexon HVR7 VINTDTL), on the virion (human adenovirus type 5, UniProt P04133 2-952, VINTETL to VINTDTL (HVR7; position worked out from the printed T425A)).
T1 construct: hexon of human adenovirus type 5, whole as in the capsid of the virion; HVR7 segment changed; The whole virion was immobilised; source: 293 cells, virions purified by CsCl ultracentrifugation
Nature of the test: SPR; Biacore T200; about 300 to 5,000 RU of Ad virions immobilised on a CM5 chip, coagulation factors flowed over at four concentrations, 50 uL/min; 10 mM HEPES, 150 mM NaCl, 1 mM CaCl2, 0.5 mM MgCl2, 0.1% BSA, 0.05% polysorbate 20, pH 7.4; global fit to a 1:1 kinetic interaction model, double referencing. As to conditions: both partners purified. For orientation: SPR reads the build-up and loss of mass on a sensor chip optically.
In general, Kd refers to the equilibrium constant for the complex coming apart. A low value points to tighter binding. In the case of B1, the affinity, expressed as Kd, was 0.438 µM. This lies in the sub-micromolar range.

For the molecule B2, the Kd amounted to 0.216 µM.

Turning to B3, binding was characterised by a dissociation constant (Kd) of 0.0025 µM.

A further test deals with T2, human prothrombin (coagulation factor II) (human, UniProt P00734 44-622, γ-carboxylated glutamate residues in the Gla domain (positions not given)).
T2 construct: prothrombin (FII), human, plasma-derived; also called Human FII; FII; source: bought: Haematologic Technologies, Inc. (HCP-0010), plasma-derived; dialyzed
Described as above. As to conditions: both partners purified.
B4: the Kd was 0.13 µM.

On to B5, for which binding was put at a Kd of 0.266 µM. This Kd is about 2-fold higher than that of the molecule before.

In the case of B6, the affinity, expressed as Kd, was 0.035 µM. Compared with the last molecule, the Kd is about 7.6-fold lower.

In the next test the target is B6. The description is as above. As to conditions: both partners purified.
Regarding B1, binding was characterised by a dissociation constant (Kd) of 0.27 µM.

Turning to B2, binding was put at a Kd of 2 µM. Compared with the last molecule, the Kd is about 7.4-fold higher.

B3: the Kd is 0.00032 µM.

The target of the next test is B4. Described as above. As to conditions: both partners purified.
Regarding B1, the Kd worked out at 1.62 µM. This lies in the single-digit micromolar range.

For the molecule B2, the Kd was 0.42 µM.

Molecule B3 gave a Kd of 0.00037 µM.

The target of the next test is B5. Described as above. As to conditions: both partners purified.
Turning to B1, the Kd is 0.54 µM.

Take B2: the Kd turned out to be 36 µM. This Kd lies about 67-fold higher than the previous one.

In the case of B3, the Kd was 0.0019 µM. This Kd is about 19000-fold lower than that of the molecule before.
